{
  "source": "paper PMC7846742",
  "target": "His6-OAZ-GSY-SPM-Ctag (human | Neisseria meningitidis serogroup B (strain MC58)) (UniProt Q9JYV5)",
  "experiment": "cross-linking; NeissLock: Ca2+-induced aspartic anhydride on OAZ reacts with the docked partner; purified proteins mixed at 10 µM each or as indicated (AZI 2.5 µM each; Fig. 4b 0.5 µM each; 30 µM ODC with 10 µM OAZ-Y-SPM), 37 °C, HBS pH 7.4 with 2 mM TCEP, 10 mM CaCl2 unless varied (pH 6.5-8.5, 0.5-10 mM Ca2+, TBS, lyophilised probe); SDS-PAGE with Coomassie, intact ESI-MS, tryptic LC-MS/MS",
  "data": [
    {"substance": "His6-AZI-Ctag (human Antizyme Inhibitor) (from UniProt O14977 1-448) (natural protein)", "values": [
      {"measurement": "coupling yield", "result": 80, "unit": "%"},
      {"measurement": "percent of AZI conjugated within 10 min", "result": "> 50", "unit": "%"}
    ]}
  ]
}
